# According to patent CN117820472A (VAZYME MEDICAL CO LTD; HUNAN NOVAZYME MEDICAL TECH CO LTD, dated 2024):
# Ends that are not written are not given here.
# B1: Anti-p-Tau 181-rRmab-1 (antibody, V domains shown)
# VH: CQSVEESGGRLVTPGTPLTLTCTVSGFSLSIYAMSWVRQAPGKGLEYIGYIVSSGSTYYASWAKGRVTISKTSSTTVDLKITSPATEDTATYFCARGSITGFTRLELWGQGTLVTVSS
# VL: DIVMTQTPASVEAAVGGTVTIKCQASESISSGLAWYQQKPGQPPKLLIYGASTLASGVPSRFKGSRSGTEYTLTISDLECADAATYYCQSYYYSSGSSLLYGFGGGTEVVVK
# notes: Recombinant rabbit monoclonal antibody from single B cell cloning, expressed in HEK293 cells and purified on protein A. Only the variable domains are printed
# Target: T1, Tau 181多肽 (also: biotin coupling for SA coating, place not given here)
# T1 peptide: CPPAPKTPP
# Assay: indirect ELISA, cell supernatants on SA+biotin peptide plates (m1 as a member of the 80 antibodies)
binder,measurement,value
B1,binding result,no binding
